Test [1] has as its target T1, human Trop-2-ECD-6His fusion protein (Homo sapiens, UniProt P09758).
T1 construct: made in house; host or cells: human 293 cell line
T1 sequence (P09758 with tags, fused parts or gaps): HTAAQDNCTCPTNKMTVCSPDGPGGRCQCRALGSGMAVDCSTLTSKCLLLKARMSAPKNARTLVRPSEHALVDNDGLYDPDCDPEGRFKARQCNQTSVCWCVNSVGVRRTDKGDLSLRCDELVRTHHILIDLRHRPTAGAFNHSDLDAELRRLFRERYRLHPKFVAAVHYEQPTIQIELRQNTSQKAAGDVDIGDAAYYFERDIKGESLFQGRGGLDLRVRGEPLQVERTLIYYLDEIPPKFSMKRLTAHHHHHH
Nature of the test: Antigen binding assay (ELISA) on immobilized Trop-2-ECD-6His. Particulars: for OD value, Conditioned Medium 1 to 1 ratio / OD value, Conditioned Medium 1 to 10 ratio: Table 3, ELISA absorbance at 405 nm. How it is done:
Using the HCVR sequence and LCVR sequence of mAbs #118-2-5 and #125-1-5, two murine-human chimeric IgG1 (hereinafter “chimeric IgG1”) was prepared which comprised the heavy chain sequences set forth in SEQ ID NOs: 47 and 49, and the light chain sequences set forth in SEQ ID NOs: 48 and 50. Nucleic acids encoded by SEQ ID NO: 19, 20 and SEQ ID NO: 21, 22 were amplified and inserted into pTT5 to make an expression plasmid of the full-length IgG. The heavy chain and light chain expression plasmids were used to co-transfect 100 mL HEK293-6E cells. The recombinant IgG secreted into to media was purified using protein A affinity. The purified IgG migrated as ~150 kDa band in SDS-PAGE under non-reducing conditions, ~55 kDa and ~30 kDA bands under reducing condition. The purity of the chimeric IgG is >90%. The binding affinity between the chimeric IgGs and a human Trop-2-ECD-6His fusion protein (SEQ ID NO:2) was determined by ELISA. The Trop-2-ECD-6His fusion protein was immobilized on the surface of a microplate wells and incubated with the chimeric IgGs. A secondary enzyme-labeled goat-anti-mouse IgG-AP was then added. After washing, the activity of the microplate well-bound enzyme was measured by adding the substrate. Color development and absorbance at 405 nm were read.
On the technique in general: In an ELISA, binding on a coated surface is turned into a signal by an enzyme label.

Test [2] concerns Trop-2 positive breast cancer cell line MDA-MB-468. Nature of the test: Internalization assay by flow cytometry (Example 2 protocol). Conditions: Table 4; chimeric IgGs; 2 hours at 37° C.; 100 × (MFI4°C - MFI37°C) / MFI4°C. The test is classed as cell-based, human. How it is done:
The chimeric IgG1 #118-2-5 and #125-1-5 were further evaluated by internalization assay using Trop-2 positive breast cancer cell line MDA-MB-468. MDA-MB-468 cells were seeded at 1×10^5 cell/well. Next, the chimeric or benchmark IgGs were added to cells in FACS buffer and incubated for 2 hours at 4° C. After incubation, the cells were washed to remove unbound antibody. The cells were then incubated at 37° C. After 2 hours, the cells were dissociated and stained with fluorescent-conjugated […] secondary antibodies for 30 minutes on ice in dark before being analyzed using Beckman flow cytometry system. The fluorescent intensity and cell binding percentage at each time point were analyzed by Beckman flow cytometric software. The amount of chimeric IgGs internalized into cells was determined using the following formula: % internalization rate = 100 × (MFI4°C - MFI37°C) / MFI4°C.
On the technique in general: A flow cytometer gives signals particle by particle.

In the next test the target is T2, human Trop-2ECD-6His (Homo sapiens, UniProt P09758).
T2 construct: made in house; host or cells: human 293 cell line
T2 sequence (P09758 with tags, fused parts or gaps): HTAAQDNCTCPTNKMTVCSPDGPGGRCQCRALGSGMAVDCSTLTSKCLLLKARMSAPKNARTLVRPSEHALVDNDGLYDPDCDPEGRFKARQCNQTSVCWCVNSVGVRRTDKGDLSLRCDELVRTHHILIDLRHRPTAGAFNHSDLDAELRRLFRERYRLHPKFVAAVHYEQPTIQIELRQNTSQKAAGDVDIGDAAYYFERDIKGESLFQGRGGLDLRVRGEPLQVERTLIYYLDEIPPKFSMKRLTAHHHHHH
Nature of the test: Cross-reactivity ELISA, human Trop-2. The test is classed as binding. Conditions: plate coated with 1 µg/mL antigen. How it is done:
(§1) Cross-reactivity of chimeric IgG #118-2-5 and #125-1-5 to the Trop-2 antigens from different species was assessed by ELISA. In this experiment, a microtiter plate was coated overnight at 4° C. with 50 µL/well of 1 µg/mL human Trop-2ECD-6His, mouse Trop-2-His, cynomolgus Trop-2-His, human EPCAM-His, and a non-related protein. The plate was washed and blocked for 1 hr at 37° C., and then washed with wash buffer. Purified chimeric IgGs appropriately diluted in PBS were added to wells and incubated for 1 hr at 37° C. After washing, bound antibodies were detected using HRP-conjugated goat-anti-human IgG Ab. Color development and absorbance at OD450 nm were read. A non-specific mock mouse IgG and a non-specific mock human IgG were included as the negative controls, while anti-His antibody was used as a positive control.
(§2) The cross-reactivity of purified IgGs to the Trop-2 antigens from different species was tested by ELISA. In this experiment, a microtiter plate was coated overnight at 4° C. with 50 µL/well of 1 µg/mL human Trop-2ECD-6His, mouse Trop-2-His, cynomolgus Trop-2-His, human EPCAM-His, and a non-related protein. The plate was washed and blocked for 1 hr at 37° C., and then washed with wash buffer. […] After washing, bound antibodies were detected using HRP-conjugated goat-anti-human IgG antibody. Color development and absorbance at OD450 nm were read. […]

Another test deals with cynomolgus Trop-2-His. Nature of the test: Cross-reactivity ELISA, cynomolgus Trop-2. Particulars: plate coated with 1 µg/mL antigen. The class given is binding. How it is done: as §1, §2
The target in another test is T3, mouse Trop-2-His (Mus musculus, UniProt Q8BGV3).
T3 sequence (Q8BGV3 25-317): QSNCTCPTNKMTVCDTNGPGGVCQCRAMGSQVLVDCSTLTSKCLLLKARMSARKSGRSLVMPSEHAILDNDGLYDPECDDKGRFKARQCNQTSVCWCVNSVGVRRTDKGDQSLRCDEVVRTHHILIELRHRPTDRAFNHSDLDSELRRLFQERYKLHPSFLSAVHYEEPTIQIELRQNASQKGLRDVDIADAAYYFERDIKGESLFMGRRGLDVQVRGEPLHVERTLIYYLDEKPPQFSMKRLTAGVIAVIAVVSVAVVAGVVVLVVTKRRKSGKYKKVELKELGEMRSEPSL
Nature of the test: Cross-reactivity ELISA, mouse Trop-2. The class given is binding. Conditions: plate coated with 1 µg/mL antigen. How it is done: as §1
(§3) The cross-reactivity of purified IgGs to the Trop-2 antigens from different species was tested by ELISA. In this experiment, a microtiter plate was coated overnight at 4° C. with 50 µL/well of 1 µg/mL human Trop-2ECD-6His, mouse Trop-2-His, cynomolgus Trop-2-His, human EPCAM-His, and a non-related protein. The plate was washed and blocked for 1 hr at 37° C., and then washed with wash buffer. Purified anti-Trop-2 antibodies appropriately diluted in PBS were added to wells and incubated for 1 hour at 37° C. After washing, bound antibodies were detected using HRP-conjugated goat-anti-human IgG antibody. Color development and absorbance at OD450 nm were read. A non-specific human IgG1 was included as a negative control, while hRS7 was used as a positive control.

The target of a further test is T4, human EPCAM-His (Homo sapiens, UniProt P16422).
T4 sequence (P16422 24-314): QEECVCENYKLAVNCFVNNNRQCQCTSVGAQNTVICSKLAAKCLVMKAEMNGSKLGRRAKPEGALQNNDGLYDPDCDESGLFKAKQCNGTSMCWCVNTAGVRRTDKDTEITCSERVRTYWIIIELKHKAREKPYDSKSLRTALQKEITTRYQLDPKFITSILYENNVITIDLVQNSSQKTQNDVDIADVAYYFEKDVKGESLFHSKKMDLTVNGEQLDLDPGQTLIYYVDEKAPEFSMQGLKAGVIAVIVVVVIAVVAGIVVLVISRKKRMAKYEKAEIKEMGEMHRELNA
Nature of the test: Cross-reactivity ELISA, human EPCAM. The class given is binding. Particulars: plate coated with 1 µg/mL antigen. The protocol:
as §1, §3

The next test has as its system non-related protein. Nature of the test: Cross-reactivity ELISA, non-related protein. The test is classed as binding. Conditions: plate coated with 1 µg/mL protein. The protocol: as §1, §3
Test [3] concerns the target T5, human Trop-2-ECD-6His fusion protein (human, UniProt P09758 27-274).
T5 construct: Expressed in a human 293 cell line; also called huTrop-2; human Trop-2 antigen
T5 sequence: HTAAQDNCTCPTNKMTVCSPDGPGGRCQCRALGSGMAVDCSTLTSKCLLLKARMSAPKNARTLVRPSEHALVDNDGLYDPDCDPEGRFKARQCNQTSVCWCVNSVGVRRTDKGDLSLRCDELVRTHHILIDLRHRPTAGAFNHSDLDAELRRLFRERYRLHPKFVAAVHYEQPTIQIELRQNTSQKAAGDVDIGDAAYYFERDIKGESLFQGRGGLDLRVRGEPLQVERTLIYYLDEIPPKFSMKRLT
Nature of the test: ELISA on immobilized Trop-2-ECD-6His; control, 1 to 1 ratio.

The target in test [4] is T5, human Trop-2-ECD-6His fusion protein. Nature of the test: ELISA on immobilized Trop-2-ECD-6His; control, 1 to 10 ratio.
Test [5] concerns the target human Trop-2 on Trop-2 positive cancer cells (human) (UniProt P09758). Nature of the test: cell-based or functional assay.
The target in test [6] is T5, human Trop-2-ECD-6His fusion protein. Nature of the test: antigen binding ELISA on immobilized human Trop-2-ECD-6His.

Turning to “hRS7: anti-Trop2 antibody used in sacituzumab govitecan (IMMU-132); used as a benchmark antibody [reference compound]”, in test [1], the “OD value, Conditioned Medium 1 to 1 ratio” value stood at 1.339. Moreover, the “OD value, Conditioned Medium 1 to 10 ratio” value in [1] is 1.457. The “Internalization rate” value in test [2] was determined as 17.62%. In addition, in the test with human Trop-2ECD-6His, the “binding to human Trop-2 antigen (ELISA, OD450 nm)” value is reported as “able to bind”. The “binding to cynomolgus Trop-2 antigen (ELISA, OD450 nm)” value in the test on cynomolgus Trop-2-His is recorded as “able to bind”. Further, the “recognition of mouse Trop-2 (ELISA, OD450 nm)” value in the test with mouse Trop-2-His is listed as “some non-specific binding”; in the test with mouse Trop-2-His (listed as benchmark IgG), “did not recognize”. For the same molecule, the “recognition of hEPCAM (ELISA, OD450 nm)” value is on record as “some non-specific binding” in the test with human EPCAM-His and “did not recognize” with human EPCAM-His (listed as benchmark IgG). Moreover, the “recognition of the non-related protein (ELISA, OD450 nm)” value in the test with non-related protein is listed as “some non-specific binding”; with non-related protein (listed as benchmark IgG), “did not recognize”.

For BSA (from UniProt P02769 25-607), the OD (absorbance at 405 nm) in test [3] came out at 0.059 OD; in [4], 0.058 OD.

B1: #125-1-5 (antibody, listed as Mus musculus, V domains shown)
VH: QIQLVQSGPELVKPGASVKMSCKASGYTFTTYVIHWVKQKPGQGLEWIGYINPNNDGTKYNEKFKGKATLISDKSSTTAYMEVRGLTSEDSAVYYCARPHFETHAMDYWGQGTSVTVSS
VL: DIQMTQSPSSFSVSLGDSVTITCKASEDIFNRLAWYQQKPGNAPRLLISGATSLETGVPSRFSGGGSGKEYTLSITSLQNEDVATYYCQQYWNTWTFGGGTKLEIK
As for B1, in [1], the “OD value, Conditioned Medium 1 to 1 ratio” value is listed as 1.572 and the “OD value, Conditioned Medium 1 to 10 ratio” value stood at 1.539. In addition, the “binding affinity to Trop 2 compared with benchmark hRS7” value in [1] (in words, chimeric IgGs, see OD value in Table 3) is given as “higher binding affinity than the benchmark reference antibody hRS7”. For the same molecule, in test [2], the “Internalization rate” value amounted to 4.70%. Moreover, the “binding to human Trop-2 antigen (ELISA, OD450 nm)” value with human Trop-2ECD-6His is on record as “able to bind”. Further, in the test on cynomolgus Trop-2-His, the “binding to cynomolgus Trop-2 antigen (ELISA, OD450 nm)” value is listed as “able to bind”. Moreover, in the test with mouse Trop-2-His, the “recognition of mouse Trop-2 (ELISA, OD450 nm)” value is recorded as “did not recognize”. In the test with human EPCAM-His, the “recognition of hEPCAM (ELISA, OD450 nm)” value was “did not recognize”. Moreover, the “recognition of the non-related protein (ELISA, OD450 nm)” value in the test on non-related protein was “did not recognize”.

B2: humanized IgG #118-2-5 Hu(A1)/LuX (antibody, V domains shown)
VH: QVQLQESGPGLVKPSETLSLTCTVSGFSLTSYGVNWIRQPPGKGLEWIGVMWAGGSTNYNSALMSRVTISVDTSKNQFSLKLSSVTAADTAVYYCARDENWDGAWFAYWGQGTLVTVSS
VL: DIVMTQSPDSLAVSLGERATINCKSSQSLLNSGTRKNYLAWYQQKPGQPPKLLIYWASSRESGVPDRFSGSGSGTDFTLTISSLQAEDVAVYYCKQSYNLFTFGGGTKVEIK
notes: Second round of humanization
B2 displayed an Internalization rate (flow cytometry, MDA-MB-468 cells) in [5] of 56%. Moreover, the EC50 (in general, the concentration needed to bring the measured effect to its halfway point) in test [6] was determined as 0.28 nM.

The values are drawn from US20230235080A1, “TROPHOBLAST CELL-SURFACE ANTIGEN-2 (TROP-2) ANTIBODIES” (Bionecure Therapeutics, Inc., priority 2020, published 2023).
